Source: a protein production outcome set (Wang et al. 2014)

Assay: label from the status in PepcDB records

For “WQPATERLQVTYLGKVSTTGMQFLSGCTEKPVIELWKKHTLAREDVFPANALLEIRPFQVWLHHLDHKGEATVHMDTFQVARIAYCTADHNVSPNIFAWVYREINDDLSYQMDCHAVECESKLEAKKLAHAMMEAFRKTFHSMKSDGRIH”, the protein production was “failed”.

With “VYLDFENHIKEIQNEIELALIRGDEDAKEILEKRLDKEVKSIYSNLTDFQKLQLARHPDRPYAMDYIDLILKDKYEVFGDRHYNDDKAIVCFVGKIDNVPVVVIGEEKGRGTKNKLLRNFGMPNPCGYRKALKMAKFAEKFNL” the protein production was “failed”.

In the case of “MTDLSARDRLAPDSSPRLLALASIALEAGALARQSLRRRHVDQMVSKGPRDYQTEIDVAVERLIVAGVSEAFPDHAIQGEEETGNRTGGPDAPVIYIDPIDGTTNFAWGLPHFGMTIAIAEQGKITCGVVYDSMLDELFSAEIGKGATLNGEKLRCADVADVQNVLVGAGLPVPGQVKSVDEELYHRALRRLMDNTAGVRRLGSAALSIAYVACGRLDGFFEDGLQVHDYGAAALILTEAGGVVTGFGGMPVDAGGGILAASPALHPWLLAGFQPGMDR”, the protein production was “failed”.

For “MAPGAAQELQAKLAEIGAPIQGNREELVERLQSYTRQTGIVLNRPVLRGEDGDKAAPPPMSAQ”, the protein production was “failed”.

In the case of “MDVEAWLDERVPLVETHHHHHHENLYFQSHMNHGANIFGVAFNTLLGKDEPQVFATAGSNRVTVYECPRQGGMQLLHCYADPDPDEVFYTCAWSYDLKTSSPLLAAAGYRGVIRVIDVEQNEAVGNYIGHGQAINELKFHPHKLQLLLSGSKDHAIRLWNIQSHVCIAILGGVEGHRDEVLSIDFNMRGDRIVSSGMDHSLKLWCLNTPEFHHKIELSNTFSQEKSTLPFPTVTKHFPDFSTRDIHRNYVDCVQWFGNFVLSKSCENAIVCWKPGQLHQSFEQVKPSDSSCTIIAEFEYDECEIWFVRFGFNPWQKVIALGNQQGKVYVWELDPSDPEGAHMTTLHNSRSVATVRQIAFSRDASVLVYVCDDATVWRWNRRQTTSI”, the protein production was “failed”.

For “MLKVAIAEDDFRVAQIQEEFLLKIKDVKVMGKALNAKETMELLQREEIDLLLLDNYLPDGIGTDLLPQIHAEFPNVDVIMVTAANENHMLEKAIRNGVSNYLIKPVTLEKFVRTIEDYKRKKQLLHNNNEVNQTLIDNFFGISQTQDIKNLPTGVDPLTLQKVKGIIKGFEEGITIEEMGEQMGASRTTARRYLEYLVATNECTVEYTYGIIGRPERKYRIGRGL”, the protein production was “failed”.

With “MWSWDVECDTCAICRVQVMDACLRCQAENKQEDCVVVWGECNHSFHNCCMSLWVKQNNRCPLCQQDWVVQRIGK” the protein production was “not failed”.

In the case of “MVNILSLFTLAALWGGSFLFVRIAANPLGPAVLIEVRVAFAALTLLVVSFFLKKSLRFMSNIKHFLILGLFNSALPFLLFAYSAQVLNVSTLAVLNSTAPIWGAVIGAIWTRTRLSKDVIFGLILGMIGVSVLVGWEAINIGDEAIIPIITALIGAFSYGVATNYAKNAPSVEPFNNAHGSMWASVLLVLPLVPFMPVREEVTSDIIAAVFALGAVCTGLAYLLYFRLIKELGASSALTVTFIIPVFGILWGYLFLGETVGVNAIIGTILVVIGTMFVTGFASKFMSKKCV”, the protein production was “failed”.

With “LLLLHGFTSHPVLTLGPLSERLKEAGWEVRQPALPGHGTRPEDLLKVRFQDWLLAAEEAYLELPEPRGVVGLSMGGLLAAHLAARHPTKALVALAPAFALKNPLAPYLHWLIPRFPGPPSIEDPELRKRNPNYPYFPTRAVLELLALMRKTPEVLPRVKARALVVEAGKDRVVKGVDRYFALLGSPRKDHLVFPESGHDLLLDRDREEVARAVRDWL” the protein production was “failed”.

With “GCTLSAEERAALERSKAIEKNLKEDGISAAKDVKLLLLGAGESGKSTIVKQMKIIHEDGFSGEDVKQYKPVVYSNTIQSLAAIVRAMDTLGIEYGDKERKADAKMVCDVVSRMEDTEPFSAELLSAMMRLWGDSGIQECFNRSREYQLNDSAKYYLDSLDRIGAADYQPTEQDILRTRVKTTGIVETHFTFKNLHFRLFDVGGQRSERKKWIHCFEDVTAIIFCVALSGYDQVLHEDETTNRMHESLKLFDSICNNKWFTDTSIILFLNKKDIFEEKIKKSPLTICFPEYTGPSAFTEAVAYIQAQYESKNKSAHKEIYTHVTCATDTNNIQFVFDAVTDVIIAKNLRGCGLY” the protein production was “failed”.

For “MRIQIQKLSYRDIDSFIELLDVFEEVFEMKNFEMPSVEHLEELLGKDDFFVFVARSEGTIVGGLTAYSLTQYFSKSPLLYIYDVAVMKRHQRKGIGKKLIMGIKDYCKDSDIGEIIVQADEADEHAIEFYQSTGAKAAKVVQFYYALNG”, the protein production was “failed”.

For “MLQIIFLVIGLFIIVLALSFAFKRYARLILWSSAITLFAGTLLLVGIGVINPIDGDNTGSTTFWGTIITLISGAALAFCAEMLKEGNKGKTKVQNGNSSVSGKQTADNEETVVLIGMLHTELAIKVFAKAIEAGYIGEKGSHYKWNDSKVLLAYMCGRIYCGDKPEYSEMDEKSYWKFGRMGVFPDTELSNLFEMPDLGQSRSNRKDLAVPAKSKEIDKFFE”, the protein production was “failed”.

In the case of “MTFLQRWQGLADNKICAFAWFVIRRFSEERVPQAAASMTFTTLLALVPVLTVMVAVASIFPVFDRWSDSFVSFVNQTIVPQGADMVFDYIDAFRDQANRLTAIGSVMLVVTSLMLIRTIDNAFNRIWRVNTQRPWMMQFLVYWALLTFGPLSLGVGISFMVGSVQDSVLSSGAQQWADALKTAARLAFMTLLLWGLYRFVPNRFVPARQAFVGALITAFCLETARFLFTWYMGNFDGYRSIYGAFAAVPFFLLWLNLLWTLVLGGAVLTSSLSYWQGEAFRRGFDSRGRFDDVLKILLLLDAAQKEGRTLSVQEFRRHINMGYDELGELLEKLARYGYIYSGRQGWVLKTGADSIELSELFKLFVYRPLPVERDHVNQAVDAVMTPCLQTLNMTLAEFDAQAKKQQQS”, the protein production was “failed”.

For “MRKKKDGQNLPDFRKNPPKLDKKAYEKELKRLQAELVDLQQWVVETGARVVIVMEGRDAAGKGSAIKRITQYLNPRSARIEALPTPNSREKGQWYFQRYIEKLPTAGEIVIFDRSWYNRAGVERVMGFCTSQEYRRFLHQAPIFERLLVEDGIHLRKYWFSVSDEEQIERFEDRLSDPLRRWKLSPMDLQSITRWEDYSRAKDEMFIHTDIPSAPWYTVESEDKKRSRINVISHLLSTIPYEKIDRPLPEIPHRPDSESDYVRPPRDEFRYVPDVAAHLEEERIKKEEKAKKAKKPAKAAGKNSDKQKSSGGKGKKKSKK”, the protein production was “failed”.

In the case of “MKKTFNLVATAAAGIEAVVGKELRNLGLDCQVENGRVLFKGNIETIAKSNLWLRSADRIKIVVGEFPARTFEELFQGVYALDWENYLPLGCQFPVAKAKSVKSKLHNEPSIQGITKKAIVKKLQHYFHRPDSVPLPENGPEFKIEISLLKDQARVMIDTTGPSLFKRGYRTEKGGAPIKENMAAAIILLSNWFPDKPFVDPTCGSGTFCIEAAMIGMNIAPGFNRDFAFEEWPWVDEALVTRVRNEADEQADYDIQLDISGFDFDGRMVEIARKNAREVGLEDVVKLKQMRLQDFKTNKINGVLISNPPYGERLLDDKAVDILYNEMGETFAPLKTWSQFILTNDTDFEQKFGRKADKKRKLYNGSLKVDLYQFYGQRVKRVLR”, the protein production was “not failed”.

For “MSFYVVVGAGPVGRETARLLGEEGHDVVLTSRSVGSNALPNVRTVQADATDASELSRICRGADAIFMCAMAAYHRWPTDFFPIIDGTVRAAEAVGAKLIVLGNLYGYGENADSPLRSDLPLDPTSRKGTARTIMWQRAVRAGIPAIEIRSSDYLGHGAISYFSLIALPAIIEGKPTAFIGDLDATHAWAFTKDVARTLVAAALYKGEWGRAFHVPSQYASPRELIQKAAAMLGQEVSGTLSYSVPEIEALGMHEAIEMSYLFEKPLLVDASDTEALLGVKASSLEEMIADTLRDHL”, the protein production was “failed”.

In the case of “MKVIGINGSSRKDGNTAILIQTVFEELTKEGIETELIQLSGKNIEGCKACWACHKNRNKQCVITDDFFNECFAKMLVSDGIILGSPVYSAGVTSQMKALIDRASMVLAGNRGLFKHKVGASVVAARRGGAISAFGTLNNFLHSKEMFLVGSSYWNMAYGNAIGEVEQDQEGIDNMKNLGQNMAWILKKIHNS”, the protein production was “failed”.

With “MTTTIHMLTIIILCGIVTWLTRIIPFVMISKVHLSERVVKWLSFIPITLFTALIIDGVLVQQEGVMGYTINMPFLITMIPTIVVAIVSRSLTITILSGIIIMALLRWVF” the protein production was “failed”.

In the case of “MADNTNVTRRSFLTATGAAAGSVALVGVSAGESDDPWNSDRSEYIVGVSNVEDDPQQHVEQYLQGQEQVGSVQERLNTAVVGLPADAPESVRKQFVDRLESRDTIKYVEQNVELQAQLVPNDPRFGDQYADQQVNAPEAWDTTTGDAGVTIGVVDQGVKYDHPDLDGNIDRSVSNGGRDFVDDDGDPYPDSLNEEIHGTHVAGIAAAEVNNGNGVTGIGNSSVIAGRALSERGSGSTADIADAITWAANEGADVINLSLGGGGYTNTMQNAVTYAANQGALVVAAAGNDGSGSVSYPAAYGGVLAVSALDPDESLASYSNYGPKIDLAAPGTNVLSTWTADDYESISGTSMATPVVAGVAGLTLAQWELSNAELRNHLKATAVDIGLSDRQQGAGRVDAANAVNTDPGSGGGGGGGGGGDSTSSSVSGSLRGRGDSNCWSFSYEYSNPSQVVIELDGPGNADFDLYANTSTNACPTTSSYEFRSWTTGSQESITIDNPDTSVDLNVLAYAYSGRGDLTVTVTEYK”, the protein production was “failed”.

With “HMARSLYPLGVSRSLPPYRRTFNHQTFIFVKSILRLGVSMEEEEFDIREALANGEHLEKILIMAKYDESVLKKLIELLDDDLWTVVKNAISIIMVIAKTREDLYEPMLKKLFSLLKKSEAIPLTQEIAKAFGQMAKEKPELVKSMIPVLFANYRIGDEKTKINVSYALEEIAKANPMLMASIVRDFMSMLSSKNREDKLTALNFIEAMGENSFKYVNPFLPRIINLLHDGDEIVRASAVEALVHLATLNDKLRKVVIKRLEELNDTSSLVNKTVKEGISRLLLLEGHSSS” the protein production was “not failed”.

For “MSKRDYYQVLGVPRTASEDDLKKAYRRCAMKYHPDRNPGDAAAEAAFKECKEAYEVLADTKKRKLYDTHGHAAFEHGVGSGNTPDMNDIFGDIFGNIFGGARASRRGADVGYMVELDLEEAVAGVERQIQIPTLVECTHCHGSGSEDGHVETCGTCRGSGQVRIQRGIFAMQQTCPHCGGRGVIIRNPCKVCNGAGRVEDHKTLSVKIPAGVDNGDRIRLSGEGEQGPDGVPPGDLYVEVRVREHPIFQRDGDDLHCEVPVRISQAALGDIVRVATLDGEAEIRIPAETQSGKLFRLRGKGVRSVRSRTEGDLYCRIVVETPVNLTAEQRKLLEQFEMTFAGEDARKHSPKSATFLDGVKSFWDRMTS”, the protein production was “failed”.

In the case of “GERCEPIELLSINLPEESSSRIIDIVTRRKGEMVMMENKNDRVFMEFHIPSRGIIGLNNAVLTASAGEAVIAHRFLEFQPWKGEIERRSNGSIIALESGTAYAYALNNLQSRGRFFISPQEEVYAG”, the protein production was “failed”.

In the case of “MPTTKQLKDTELPLNFFEHSSLETIELFIQHLTEAMILVNANGFIRSCNQRSAELLDCPQVSLKGQDWRNFLTEHHQARYDNLLSHDVQLGTNCGQPVQHPAQETTLICASGKAKDVELSISYIPGHEPMFVMVMHDLTHHKAELEHHHHHH”, the protein production was “not failed”.
